Assay results published in patent publication US20190270818A1 (Eli Lilly, published 2019).

Key:
[1] = target: T1, Human PD-1 (cell membrane expressed) (human, UniProt Q15116 25-288); test: cell-based or functional assay
[2] = target: T2, Cynomolgus monkey PD-1 (cell membrane expressed) (cynomolgus monkey, UniProt Q15116 25-288 (human entry)); test: flow cytometry on CHO cells expressing cynomolgus monkey PD-1, GMFI, 4-parameter fit, average
T2 construct: Stably expressed on CHO-K1 cells; no cleavage site is stated; also called cyno PD-1; cynomolgus PD-1
T2 chain: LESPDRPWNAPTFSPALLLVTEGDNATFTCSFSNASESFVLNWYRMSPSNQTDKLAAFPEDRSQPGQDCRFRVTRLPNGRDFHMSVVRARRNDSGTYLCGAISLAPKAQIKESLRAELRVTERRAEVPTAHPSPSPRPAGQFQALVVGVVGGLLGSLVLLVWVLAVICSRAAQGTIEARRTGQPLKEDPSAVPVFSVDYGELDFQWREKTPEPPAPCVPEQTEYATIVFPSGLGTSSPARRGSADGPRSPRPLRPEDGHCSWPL
Description: (§1) The ability of the anti-human PD-1 agonist antibodies disclosed herein to bind to cell surface human or cynomolgus monkey PD-1 can be measured using a flow cytometric assay. Human and cynomolgus monkey PD-1 (i.e., as shown in SEQ ID NOs: 13 and 15, respectively) expressing stable cells are generated by transfecting human or cynomolgus monkey PD-1 plasmid DNA into Chinese Hamster Ovary cells (CHO-kl; Lonza) using an electroporation system (Gene Pulser Xcell; BioRad) according to established protocols. Stable cells are selected from single isolated cells using 500 μg/mL G418 (Thermo Scientific) in culture medium. For flow cytometry, the cells are transferred into a 96-well V-bottom plate at density of 1×10⁵ cells/well. The cells are washed with 1×FACS buffer (Becton Dickinson #554656). Antibody 1, or control human IgG1 (diluted in FACS buffer in a three-fold 12-point titration of the antibodies, starting at 100 micrograms/mL) are added (in 100 microliters) and cells are incubated at 4° C. for 30 minutes.
(§2) After washing twice in FACS buffer, live/dead cell staining is performed using SytoxBlue (Invitrogen, #S34857) per manufacturer's protocol. […] Flow cytometry data is analyzed using FlowJo software. Geometric Mean Fluorescence Intensity (GMFI) values are used to calculate relative EC₅₀ based on 4-parameter logistic regression.

[3] = target: T1, Human PD-1 (cell membrane expressed); test: flow cytometry on CHO cells expressing human PD-1, GMFI, 4-parameter fit, average
Description: as §1, §2

[4] = target: T3, Cynomolgus monkey PD1-extracellular domain (ECD)-His (cynomolgus monkey); test: SPR, Biacore 8K, 25° C., mAb captured on protein A, PD1-ECD-His as analyte, n=1
T3 construct: Expressed in CHO cells, purified by IMAC and size exclusion; also called cynomolgus monkey PD-1 ECD; cynomolgus PD1-ECD-his
T3 chain: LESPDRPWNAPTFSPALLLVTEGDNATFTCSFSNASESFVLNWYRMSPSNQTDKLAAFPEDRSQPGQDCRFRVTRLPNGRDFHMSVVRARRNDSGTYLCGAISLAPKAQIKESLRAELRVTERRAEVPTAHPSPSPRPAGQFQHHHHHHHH
Description: (§3) The binding kinetics of an anti-human PD-1 agonist antibody of the invention to human and cynolmolgus monkey PD-1 ECDs may be determined by use of a surface plasmon resonance biosensor such as BIAcore® 2000, BIAcore® 3000, BIAcore® 8K, or a BIAcore® T100 (GE Healthcare, Piscataway, N.J.). Briefly described, a BIAcore® 8K instrument is used to measure the binding kinetics for Antibody 1 to human and cynomolgus monkey PD1-extracellular domain (ECD)-His via surface plasmon resonance (SPR) at 25° C. Samples are dissolved in 1×HBS-EP+ running buffer (Teknova cat. # H8022) and a protein A coupled CMS Series S sensor chip (GE Healthcare Cat #29139131-AA) is utilized to capture mAb. Human and cynomolgus monkey PD1-ECD proteins which contain a C-terminal 8× histidine tag are expressed in CHO cells and purified by nickel charged IMAC followed by size exclusion.
(§4) Binding is evaluated using multiple analytical cycles. Each cycle is performed at 25° C. at a flow rate of 10 μl/minute for mAb capture and 30 μl/minute for ligand association and dissociation. Each cycle consists of the following steps: injection of mAb at 2 μg/ml for 60 s contact time targeting a capture level of approximately 220RUs on flow cell 2, injection of 150 seconds of human or cynomolgus PD1-ECD-his (concentration range of 400 nM to 1.6 nM by four fold serial dilution) followed by 600 second dissociation phase, and regeneration using 10 mM glycine hydrochloride, pH 1.5 over a 30 second contact time. Association (i.e., Kon) and dissociation rates (i.e., Koff) for each cycle are evaluated using standard double referencing and fit to “1:1 (Langmuir) binding” model in the Biacore 8K evaluation in parallel kinetics batch mode. The affinity (KD) is calculated from the binding kinetics according to the relationship KD=Koff/Kon.

[5] = target: T4, Human PD1-extracellular domain (ECD)-His (human, UniProt Q15116 25-167); test: as above
T4 construct: Expressed in CHO cells, purified by IMAC and size exclusion; also called human PD-1 ECD; human PD1-ECD-his
Description: as §3, §4

[6] = target: T4, Human PD1-extracellular domain (ECD)-His; test: SPR, Biacore T200, 37° C., mAb captured, PD1-ECD-His as analyte, mean ± SD, n=9; 37° C. (n=9)
Description: (§5) In subsequent experiments, Biacore was used to measure the binding kinetics for Antibody 1 to human and cynomolgus monkey PD1-extracellular domain (ECD)-His via surface plasmon resonance (SPR) at 37° C. by BIAcore® T200. For analyses at 37° C., binding is evaluated using multiple analytical cycles. Each cycle is performed at 37° C. at a flow rate of 10 μl/minute for mAb capture and 100 μl/minute for ligand association and dissociation. Each cycle consists of the following steps: injection of mAb at 2.5 μg/ml targeting a capture level of approximately 220RUs on flow cell 2, injection of 180 seconds of human or cynomolgus PD1-ECD-his (concentration range of […] to 1.6 nM by 2-fold serial dilution) followed by 600 second dissociation phase, and regeneration using 10 mM glycine hydrochloride, pH 1.5 over a 30 second contact time. Kon, Koff, and KD are calculated essentially as described above. Affinity data is reported as average and standard deviations determined from triplicate measurements in three independent experiments (mean±SD, n=9).

[7] = target: T3, Cynomolgus monkey PD1-extracellular …; test: SPR, Biacore T200, 37° C., mAb captured, PD1-ECD-His as analyte, mean ± SD, n=9
Description: as §5

[8] = target: T4, Human PD1-extracellular domain (ECD)-His; test: as above
Description: as §5

T1 sequence (Q15116 25-288 limits assumed): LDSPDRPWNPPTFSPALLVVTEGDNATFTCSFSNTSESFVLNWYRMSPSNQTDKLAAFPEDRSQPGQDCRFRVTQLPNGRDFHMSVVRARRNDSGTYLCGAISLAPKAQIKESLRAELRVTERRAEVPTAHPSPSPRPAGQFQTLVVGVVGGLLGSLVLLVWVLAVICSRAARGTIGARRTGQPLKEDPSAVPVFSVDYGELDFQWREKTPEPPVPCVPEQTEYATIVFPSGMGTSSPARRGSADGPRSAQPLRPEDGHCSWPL

inhibition of human PD-1 NFAT-luciferase reporter cell activity (IC50) [1]: 0.0752 µg/mL | EC50 [2]: 1.09 µg/mL | EC50 [3]: 1.3 µg/mL | Kd [4]: 4.7 nM | koff [4]: 0.0011 s⁻¹ | kon [4]: 240000 M⁻¹ s⁻¹ | Kd [5]: 1 nM | koff [5]: 0.00017 s⁻¹ | kon [5]: 170000 M⁻¹ s⁻¹ | kon [6]: 307000 M⁻¹ s⁻¹ | Kd [7]: 9.51 nM | koff [7]: 0.00489 s⁻¹ | kon [7]: 519000 M⁻¹ s⁻¹ | Kd [8]: 2.29 nM | koff [8]: 0.000701 s⁻¹
B1: Antibody 1 (antibody, human IgG1, kappa, V domains shown)
VH: QVQLVQSGAEVKKPGASVKVSCKVSGYSLSKYDMSWVRQAPGKGLEWMGIIYTSGYTDYAQKFQGRVTMTEDTSTDTAYMELSSLRSEDTAVYYCATGNPYYTNGFNSWGQGTLVTVSS
VL: DIQMTQSPSSLSASVGDRVTITCQASQSPNNLLAWYQQKPGKAPKLLIYGASDLPSGVPSRFSGSGSGTDFTLTISSLQPEDFATYYCQNNYYVGPVSYAFGGGTKVEIKR
notes: Humanized IgG1 with kappa light chain; also called anti-human PD-1 agonist antibody; anti-human PD-1 agonist IgG1 antibody
